Measured values reported in EP4563528A1.

Tests used:
human IgG (human) [1] = test: depletion of IgG from 50 µL human serum with 1 mg nanoparticles, 60 min with stirring at room temperature
human IgG (human) [2] = test: depletion of 10 mg/ml IgG solution, 1 mg particles per 50 µL, single half-hour incubation

IgG elimination capacity (human IgG (human) [1]): > 90%
percent of IgG removed (human IgG (human) [2]): > 90%
Substance: protein G' (protein G devoid of the albumin recognition region), covalently bound to silica mesoporous nanoparticles (from UniProt P19909 314-497)
